Biological target: mouse KOR-EGFP (mouse) (UniProt P33534)
Sequence (P33534 whole entry): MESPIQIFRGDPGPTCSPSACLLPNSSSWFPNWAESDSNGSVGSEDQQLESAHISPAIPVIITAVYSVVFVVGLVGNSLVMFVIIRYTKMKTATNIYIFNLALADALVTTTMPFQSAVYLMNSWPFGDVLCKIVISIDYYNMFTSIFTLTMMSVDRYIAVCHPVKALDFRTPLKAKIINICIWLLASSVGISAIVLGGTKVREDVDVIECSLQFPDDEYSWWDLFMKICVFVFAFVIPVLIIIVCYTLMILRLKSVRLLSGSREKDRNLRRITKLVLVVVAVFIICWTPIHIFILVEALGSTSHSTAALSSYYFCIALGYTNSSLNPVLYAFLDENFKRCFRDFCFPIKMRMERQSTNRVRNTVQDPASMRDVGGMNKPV

## dynorphin (dyn) A_(1-13) (peptide)
  β-arrestin-2 recruitment (BRET), EC50: 31 nM

Source: article PMC10698194
